Measurements from publication PMC6572768, “THETA system allows one-step isolation of tagged proteins through temperature-dependent protein–peptide interaction” (Communications Biology, 2019).

T1: recombinant chicken cryptochrome 4, full-length, untagged (chicken)
T1 construct: chicken cryptochrome 4 (cCRY4); last residue Thr529; calculated molecular mass 61,063 Da; also called cCRY4; non-tagged cCRY4; source: budding yeast MaV203, overexpressed, in soluble extract
T1 chain: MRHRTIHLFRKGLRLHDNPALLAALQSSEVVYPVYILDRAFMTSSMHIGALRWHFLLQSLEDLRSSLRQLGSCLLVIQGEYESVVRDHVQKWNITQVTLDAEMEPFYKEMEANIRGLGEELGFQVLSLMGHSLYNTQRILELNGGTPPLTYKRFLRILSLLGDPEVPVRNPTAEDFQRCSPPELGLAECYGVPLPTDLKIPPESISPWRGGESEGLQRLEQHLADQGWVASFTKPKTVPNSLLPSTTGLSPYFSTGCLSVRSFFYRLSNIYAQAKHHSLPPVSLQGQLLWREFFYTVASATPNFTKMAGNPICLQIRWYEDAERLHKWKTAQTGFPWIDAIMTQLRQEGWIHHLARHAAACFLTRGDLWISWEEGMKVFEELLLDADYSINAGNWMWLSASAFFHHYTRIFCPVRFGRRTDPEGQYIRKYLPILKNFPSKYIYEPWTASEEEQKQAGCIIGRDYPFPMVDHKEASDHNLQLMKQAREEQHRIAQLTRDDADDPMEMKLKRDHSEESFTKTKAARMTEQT

T2: GST-cCRY4CCE (chicken)
T2 construct: chicken cryptochrome 4 (cCRY4) C-terminal region, Asp470-Thr529; also called cCRY4 C-terminal extension (CCE)
T2 chain: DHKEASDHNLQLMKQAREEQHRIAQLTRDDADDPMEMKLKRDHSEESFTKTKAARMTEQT

B1: MBP-C13scFv-His (scFv, V domains shown)
VH: EVKLEESGGGLVQPGGSLRLSCATSGFTFTDYYMSWVRQPPGKALEWLGFIRNKANVYTTEYSASVKGRFTISRDNSQSILYLQMNTLRAEDSATYYCARDGGYDDGGYAMDYWGQGTSVTVSS
VL: DIVMTQSHKFMSTSVGDRVSITCKASQDVGTAVAWYQQKPGQSPKLLIYWASTRHTGVPDRFTGSGSGTDFTLTISNVQSEDLADYFCQQYSSYPYTFGGGTKLEIK
notes: C13 variable light (VL); (GGGGS)3 linker; C13 variable heavy (VH); Order VL-linker-VH in pET-22b(+); also called MBP-THETAL-His; THETAL; not shown: MBP, N-terminal, kept; His6, C-terminal, kept

What was measured:
[1] = biological target: C13 monoclonal antibody (mouse); test: ELISA; indirect competitive ELISA at 4, 15, 26 and 37 °C; antibody mixed with serially diluted antigen until equilibrium, then 15 min on a well coated with GST-cCRY4CCE (1 μg/mL for C13 mAb); SM/TBS; affinity constants by fit to a model formula
[2] = biological target: T1, recombinant chicken cryptochrome 4, …; test: pull-down; renatured MBP-THETAL-His immobilised on Affi-Gel 15; crude extract mixed with the gel at 4 °C, washed, eluted by warming to 42 °C or 37 °C; conditions: one partner purified
[3] = biological target: T2, GST-cCRY4CCE; test: ELISA; MBP-C13scFv-His refolded at various pH, dialysed against PBS pH 7.4, titrated on cCRY4CCE; detected with anti-6xHis antibody; EC50 by the Rodbard model

fold of the affinity constant at 4 °C over that at 37 °C [1] [times] | binding result [2] | binding result [3] | Binder
480 |  |  | TKTKAARMTEQT [GST-CT9]
 | binds | binds | B1
